This note sets out measurements from paper PMC7561103, “Notch dimerization and gene dosage are important for normal heart development, intestinal stem cell maintenance, and splenic marginal zone B-cell homeostasis during mite infestation” (PLoS Biology, 2020).

Data set [1] deals with the molecule itself. Briefly: native gel or EMSA; 1xSPS probe; band intensities fitted to a 2-site binding model with cooperativity factor C (Kd,2nd = Kd,1st/C); RBPj 2.5 to 640 nM, N1ICD and MAML at 2 uM; association of two NTCs on DNA.
In data set [2] the target is T1, mouse RBPj (aa 53–474) (mouse, UniProt P31266 53-474).
T1 construct: RBPj (CSL), mouse, residues 53-474; also called CSL
The data set can be described thus: native gel or EMSA; Notch transcription complexes assembled on fluorescent DNA probes with CSL sites (1.75 nM each probe); RBPj 2.5 to 640 nM in 4-fold steps, with or without N1ICD and MAML at 2 uM; native polyacrylamide gel. The settings on record: both partners purified. Background: In EMSA bound probe runs differently from free probe, usually more slowly.

T1 sequence (P31266 53-474): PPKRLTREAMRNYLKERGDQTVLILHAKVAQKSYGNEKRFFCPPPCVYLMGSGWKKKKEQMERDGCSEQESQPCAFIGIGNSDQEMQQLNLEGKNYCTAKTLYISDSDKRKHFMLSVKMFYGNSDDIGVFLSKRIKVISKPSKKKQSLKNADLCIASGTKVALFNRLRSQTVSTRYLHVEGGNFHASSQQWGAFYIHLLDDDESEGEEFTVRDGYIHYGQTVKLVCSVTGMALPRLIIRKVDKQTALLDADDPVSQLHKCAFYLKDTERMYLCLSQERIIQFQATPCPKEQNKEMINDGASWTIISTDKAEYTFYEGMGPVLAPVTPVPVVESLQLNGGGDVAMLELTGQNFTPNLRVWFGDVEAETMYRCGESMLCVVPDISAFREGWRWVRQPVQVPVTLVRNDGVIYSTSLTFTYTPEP

B1: mouse N1ICD (aa 1744–2113) (domain or fragment, UniProt Q01705 1744-2113, looked up)
chain: VLLSRKRRRQHGQLWFPEGFKVSEASKKKRREPLGEDSVGLKPLKNASDGALMDDNQNEWGDEDLETKKFRFEEPVVLPDLSDQTDHRQWTQQHLDAADLRMSAMAPTPPQGEVDADCMDVNVRGPDGFTPLMIASCSGGGLETGNSEEEEDAPAVISDFIYQGASLHNQTDRTGETALHLAARYSRSDAAKRLLEASADANIQDNMGRTPLHAAVSADAQGVFQILLRNRATDLDARMHDGTTPLILAARLAVEGMLEDLINSHADVNAVDDLGKSALHWAAAVNNVDAAVVLLKNGANKDMQNNKEETPLFLAAREGSYETAKVLLDHFANRDITDHMDRLPRDIAQERMHHDIVRLLDEYNLVRSPQ
notes: Notch1 intracellular domain (RAM-ANK), mouse, residues 1744-2113; also called N1 RAM-ANK domain; WT N1ICD
On to B1, for which, in data set [1], the “fold stronger binding of the NTC to the second site than to the first site (cooperativity on 1xSPS)” value was 5 fold. For the same molecule, the binding result in data set [2] is given as “binds”.

B2: mouse N1^RAICD (aa 1744–2113) (domain or fragment, UniProt Q01705 1744-2113, looked up)
chain: VLLSRKRRRQHGQLWFPEGFKVSEASKKKRREPLGEDSVGLKPLKNASDGALMDDNQNEWGDEDLETKKFRFEEPVVLPDLSDQTDHRQWTQQHLDAADLRMSAMAPTPPQGEVDADCMDVNVRGPDGFTPLMIASCSGGGLETGNSEEEEDAPAVISDFIYQGASLHNQTDRTGETALHLAARYSRSDAAKRLLEASADANIQDNMGRTPLHAAVSADAQGVFQILLRNAATDLDARMHDGTTPLILAARLAVEGMLEDLINSHADVNAVDDLGKSALHWAAAVNNVDAAVVLLKNGANKDMQNNKEETPLFLAAREGSYETAKVLLDHFANRDITDHMDRLPRDIAQERMHHDIVRLLDEYNLVRSPQ
notes: Notch1 intracellular domain (RAM-ANK), mouse, residues 1744-2113, with Arg1974 in the ANK domain changed to alanine; also called RA mutant; N1^R1974A
For the molecule B2, the binding result in data set [2] is “binds”.

B3: human SMT3-MAML1 (aa 1–280) (domain or fragment, UniProt Q92585 1-280, looked up)
chain: MVLPTCPMAEFALPRHSAVMERLRRRIELCRRHHSTCEARYEAVSPERLELERQHTFALHQRCIQAKAKRAGKHRQPPAATAPAPAAPAPRLDAADGPEHGRPATHLHDTVKRNLDSATSPQNGDQQNGYGDLFPGHKKTRREAPLGVAISSNGLPPASPLGQSDKPSGADALQSSGKHSLGLDSLNKKRLADSSLHLNGGSNPSESFPLSLNKELKQEPVEDLPCMITGTVGSISQSNLMPDLNLNEQEWKELIEELNRSVPDEDMKDLFNEDFEEKKD
notes: Mastermind-like 1 (MAML1), human, residues 1-280; also called MAML protein; Mastermind-like
Take B3: the binding result in data set [2] is on record as “binds”.
